Substitutions are numbered along the chain they refer to.
Legend:
Assay in all cases: cell-based or functional assay
[1] = molecular target: T1, human IL-18 receptor complex (IL-18Rα/β) (human, UniProt Q13478 19-541; O95256 20-599)
T1 sequence (looked up) 1: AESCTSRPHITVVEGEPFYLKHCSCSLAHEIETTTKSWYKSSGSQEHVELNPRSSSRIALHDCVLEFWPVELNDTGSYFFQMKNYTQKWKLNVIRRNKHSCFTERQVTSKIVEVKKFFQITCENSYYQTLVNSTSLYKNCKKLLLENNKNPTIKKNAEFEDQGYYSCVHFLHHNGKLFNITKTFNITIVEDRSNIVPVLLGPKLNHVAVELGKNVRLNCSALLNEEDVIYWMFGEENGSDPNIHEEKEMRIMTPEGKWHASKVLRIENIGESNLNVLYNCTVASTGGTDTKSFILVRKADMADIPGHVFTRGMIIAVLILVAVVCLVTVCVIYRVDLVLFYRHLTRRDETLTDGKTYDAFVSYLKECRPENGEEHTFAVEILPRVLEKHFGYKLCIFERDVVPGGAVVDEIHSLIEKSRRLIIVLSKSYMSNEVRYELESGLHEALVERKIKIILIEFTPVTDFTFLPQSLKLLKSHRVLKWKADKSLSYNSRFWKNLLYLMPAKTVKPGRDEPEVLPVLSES
T1 sequence (looked up) 2: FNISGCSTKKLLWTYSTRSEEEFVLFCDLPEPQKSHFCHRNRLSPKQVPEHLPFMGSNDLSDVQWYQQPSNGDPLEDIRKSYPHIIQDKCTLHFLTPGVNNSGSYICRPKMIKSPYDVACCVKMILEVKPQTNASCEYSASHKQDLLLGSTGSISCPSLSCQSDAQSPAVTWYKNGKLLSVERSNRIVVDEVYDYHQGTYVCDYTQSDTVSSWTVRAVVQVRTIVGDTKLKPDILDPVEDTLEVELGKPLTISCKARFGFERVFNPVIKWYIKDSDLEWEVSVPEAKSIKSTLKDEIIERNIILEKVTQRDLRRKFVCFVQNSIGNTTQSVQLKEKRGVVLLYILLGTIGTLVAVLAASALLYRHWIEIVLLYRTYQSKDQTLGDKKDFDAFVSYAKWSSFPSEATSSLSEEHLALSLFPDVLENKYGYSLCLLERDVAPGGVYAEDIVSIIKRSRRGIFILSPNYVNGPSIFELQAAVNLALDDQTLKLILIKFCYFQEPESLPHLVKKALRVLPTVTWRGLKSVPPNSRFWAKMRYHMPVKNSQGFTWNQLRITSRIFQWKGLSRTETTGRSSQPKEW

[2] = molecular target: T1, human IL-18 receptor complex (IL-18Rα/β); remark: listed apart in the source
[3] = molecular target: T2, human recombinant IL-18-BP (human, UniProt O95998 31-194)
T2 sequence (looked up): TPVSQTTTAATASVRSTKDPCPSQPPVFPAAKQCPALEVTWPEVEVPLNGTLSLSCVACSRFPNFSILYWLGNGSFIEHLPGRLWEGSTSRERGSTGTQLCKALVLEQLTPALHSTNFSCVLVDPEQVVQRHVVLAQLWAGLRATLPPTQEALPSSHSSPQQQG

[4] = molecular target: T1, human IL-18 receptor complex (IL-18Rα/β); remark: listed apart in the source

B1: FUSE-782 (antibody, human IgG1, kappa, L234A L235A)
heavy 1: QVQLVESGGGVVQPGRSLRLDCKASGITFSNSGMHWVRQAPGKGLEWVAVIWYDGSKRYYADSVKGRFTISRDNSKNTLFLQMSSLRAEDTAVYYCATNDDYWGQGTLVTVSSASTKGPSVFPLAPSSKSTSGGTAALGCLVKDYFPEPVTVSWNSGALTSGVHTFPAVLQSSGLYSLSSVVTVPSSSLGTQTYICNVNHKPSNTKVDKKVEPKSCDKTHTCPPCPAPEAAGGPSVFLFPPKPKDTLMISRTPEVTCVVVDVSHEDPEVKFNWYVDGVEVHNAKTKPREEQYNSTYRVVSVLTVLHQDWLNGKEYKCKVSNKALPAPIEKTISKAKGQPREPQVYTLPPSREEMTKNQVSLSCAVKGFYPSDIAVEWESNGQPENNYKTTPPVLDSDGSFFLVSKLTVDKSRWQQGNVFSCSVMHEALHNRFTQKSLSLSPGK
heavy 2: QVQLVESGGGVVQPGRSLRLDCKASGITFSNSGMHWVRQAPGKGLEWVAVIWYDGSKRYYADSVKGRFTISRDNSKNTLFLQMSSLRAEDTAVYYCATNDDYWGQGTLVTVSSASTKGPSVFPLAPSSKSTSGGTAALGCLVKDYFPEPVTVSWNSGALTSGVHTFPAVLQSSGLYSLSSVVTVPSSSLGTQTYICNVNHKPSNTKVDKKVEPKSCDKTHTCPPCPAPEAAGGPSVFLFPPKPKDTLMISRTPEVTCVVVDVSHEDPEVKFNWYVDGVEVHNAKTKPREEQYNSTYRVVSVLTVLHQDWLNGKEYKCKVSNKALPAPIEKTISKAKGQPREPQVYTLPPSREEMTKNQVSLWCLVKGFYPSDIAVEWESNGQPENNYKTTPPVLDSDGSFFLYSKLTVDKSRWQQGNVFSCSVMHEALHNHYTQKSLSLSPGGGGGSGGGGSGGGGSGGGGSAAEPVEDNSINFVAMKFIDNTLYFIAENDENGGGSYFGKLESKLSVIRNLNDQVLFIDQGNRPLFEDMTDSDSRDNAPRTIFIISKYGDSQPRGLAVTISVKSEKISTLSSENKIISFKEMNPPDNIKDTKSDIIFFQRSVPGHDNKVQFESSSYEGYFLASEKERDLFKLILKKEDELGDRSIMFTVQNED
light: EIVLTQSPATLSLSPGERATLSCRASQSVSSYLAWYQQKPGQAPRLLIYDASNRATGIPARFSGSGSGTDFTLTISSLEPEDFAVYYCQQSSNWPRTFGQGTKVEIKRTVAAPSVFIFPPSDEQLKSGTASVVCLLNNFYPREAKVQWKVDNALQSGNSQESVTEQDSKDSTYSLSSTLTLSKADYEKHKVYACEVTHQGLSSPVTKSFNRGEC
In the case of B1, the “IL18 biological activity on HEK Blue IL18 (trans activity only), attenuation relative to recombinant human IL18” value [1] is reported as > 100000 fold, the “SEAP release of PD-1 decorated HEK Blue IL18 (cis activity), increase relative to non targeted FUSE827” value [1] is reported as ~100 fold and the “SEAP release, PD-1 decorated HEK Blue IL-18 against non-decorated HEK Blue IL18” value [1] is reported as ~100 fold.

B2: FUSE-783 (antibody, human IgG1, kappa, L234A L235A)
heavy 1: B1 heavy 1
heavy 2: B1 heavy 2 with S471V, S535V, S565V, S573V, S624V
light: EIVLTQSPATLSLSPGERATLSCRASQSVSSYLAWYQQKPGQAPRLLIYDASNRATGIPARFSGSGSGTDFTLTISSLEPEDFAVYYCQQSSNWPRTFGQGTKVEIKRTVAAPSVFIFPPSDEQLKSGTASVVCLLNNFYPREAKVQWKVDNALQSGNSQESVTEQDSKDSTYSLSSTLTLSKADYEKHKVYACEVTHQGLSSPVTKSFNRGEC
In the case of B2, the “IL18 biological activity on HEK Blue IL18 (trans activity only), attenuation relative to recombinant human IL18” value [1] is reported as ~1000 fold, the “SEAP release of PD-1 decorated HEK Blue IL18 (cis activity), increase relative to non targeted FUSE775” value [1] is reported as ~30 fold and the “SEAP release, PD-1 decorated HEK Blue IL-18 against non-decorated HEK Blue IL18” value [1] is reported as ~30 fold.

B3: IL-18AV released from FUSE-442 by enterokinase (ligand)
chain: YFGKLESKLSVIRNLNDQVLFIDQGNRPLFEDMTDSDVRDNAPRTIFIISMYKDSQPRGMAVTISVKVEKISTLSVENKIISFKEMNPPDNIKDTKSDIIFFQRSVPGHDNKMQFESSSYEGYFLAVEKERDLFKLILKKEDELGDRSIMFTVQNED
B3 was tested, and the “EC50-SEAP, HEK-Blue IL-18 reporter cells, EK-cleaved FUSE-442 titrated in medium alone (row 'FUSE442 + EK')” value [2] was 0.0186 ng/mL and the “EC50-SEAP, HEK-Blue IL-18 reporter cells, EK-cleaved FUSE-442 titrated in medium with 1.25 µg/ml rhIL-18BP (row 'FUSE442 + EK +BP')” value [3] was 0.211 ng/mL.

B4: IL-18mut2AV released from FUSE-424 by enterokinase (ligand)
chain: B3 chain with M51K, K53G, M60L, M113V
In the case of B4, the “EC50-SEAP, HEK-Blue IL-18 reporter cells, EK-cleaved FUSE-424 titrated in medium alone (table G beside graph F 'EK-FUSE424'; the table row itself is labelled 'FUSE442 + EK')” value [4] is reported as 0.0034 ng/mL.
